In assay [1] the target is 猫泛白细胞减少症病毒1009株 (Feline panleukopenia virus). Nature of the assay: cell-based or functional assay.
For assay [2] the target is unchanged. The assay can be described thus: indirect immunofluorescence on acetone-fixed F81 cells infected with FPV 1009 strain.

B1: 单克隆抗体3C3 (antibody, V domains shown)
VH: DVKLVESGGGLVNLGGSLKLSCAASGFTFSSYYMSWVRQTPEKRLELVAAINSNGGGTHSPDTVKGRFTISRDNAKNTLYLQMSSLESEDTALYYCARHADDGSFGLNWYFDVWGAGTTVTVSS
VL: DIVMSQSPSSLAVSVGEKVTMSCKSSQSLLYRSNEKNYLAWYQQKPGQSPKLLIYWGSTRESGVPDRFTGSGSGTDFTLTISSVKAEDLAVYYCHQYYRYSYTFGGGTKLEIK
Molecule B1 showed an HI效价 (reciprocal dilution (printed 1:n)) in assay [1] of 5120. The IFA效价 (reciprocal dilution (printed 1:n)) in assay [2] worked out at 6400.

The values above are taken from CN114249819A.
